Source: US20140242093A1, “METHODS AND COMPOSITIONS FOR MODULATING THE INNATE IMMUNE RESPONSE AND/OR MYOGENESIS IN A MAMMALIAN SUBJECT” (FRED HUTCHINSON CANCER RESEARCH CENTER, priority 2011, published 2014)

System: control human primary myoblasts
Assay: Expression microarray of primary myoblasts transduced with lentivirus carrying DUX4-fl, DUX4-s or GFP
Experimental: Primary human myoblasts were collected and cultured as previously described (Snider et al., 2010). Primary myoblasts were maintained at or below 70% confluency for proliferation. For differentiation, cells were allowed to reach 95-100% confluency in growth medium. Once confluency was reached, the cells were changed to differentiation medium (F10 media supplemented with 1% horse serum, 10 μg/mL insulin, and 10 μg/mL transferrin, penicillin/streptomycin) and maintained for 4 days. Human RD cells were grown in DMEM in 10% bovine calf serum (Hyclone) and penicillin/streptomycin. The primary myoblasts were transduced with lentivirus carrying DUX-fl, DUX4- or GFP (MOI=15).
Expression microarrays were performed on the transduced cells at 24 hours after transduction as follows. […] Samples were analyzed by Illumina Human Whole Genome microarrays. Probe intensities were corrected, normalized, and summarized by the Lumi package of Bioconductor (Du et al., 2008). Differentially expressed genes were identified by the LIMMA package of Bioconductor (Wettenhall and Smyth, 2004). Gene set enrichment analysis (GSEA) was performed using the Bioconductor GOstats package (Falcon and Gentleman, 2007).

[1] = 2-fold change and FDR<0.01 vs lenti-GFP, 24 hours after transduction
[2] = 3-fold criteria (>1.584 log2-fold change and FDR<0.01)

B1: DUX4-s: short splice form of DUX4 (SEQ ID NO:112), keeps the double-homeobox domains, lacks the C-terminal activation domain (protein, listed as Homo sapiens)
chain: MALPTPSDSTLPAEARGRGRRRRLVWTPSQSEALRACFERNPYPGIATRERLAQAIGIPEPRVQIWFQNERSRQLRQHRRESRPWPGRRGPPEGRRKRTAVTGSQTALLLRAFEKDRFPGIAAREELARETGLPESRIQIWFQNRRARHPGQGGRAPAQV
**Q.** Which results are given for B1?
**A.** number of genes with decreased expression [1]: 45 genes; number of genes with increased expression [1]: 159 genes; number of genes decreased [2]: one; number of genes increased [2]: 37 genes; BQ437417 (no symbol given) expression fc (Refseq BQ437417, cultured human skeletal muscle): −0.126; fc of ACVRL1 (expression array) (Refseq NM_000020.1): 0.06199; fc of C3 (expression array) (Refseq NM_000064.1): 0.2479; CA2 expression fc (Refseq NM_000067.1): 0.1046; fc of COL1A1 (expression array) (Refseq NM_000088.3): −1.257; CST3 fc (Refseq NM_000099.2): 0.1574; ENG fc (Refseq NM_000118.1): 0.4927; fc of GAMT (expression array) (Refseq NM_000156.4): −0.3529; GBE1 fc (Refseq NM_000158.2): 0.4818; fc of IDS (expression array) (Refseq NM_000202.3): 0.6655; KCNA1 expression fc (Refseq NM_000217.2): 0.02842; SGCG expression fc (Refseq NM_000231.1): 0.125; NP expression fc (Refseq NM_000270.1): 0.2279; fc of PTEN (expression array) (Refseq NM_000314.4): −0.3029; SLC3A1 expression fc (Refseq NM_000341.2): 0.003792; SOX9 expression fc (Refseq NM_000346.2): −0.3086; fc of PAFAH1B1 (expression array) (Refseq NM_000430.2): −1.237; HBA2 expression fc (Refseq NM_000517.3): 0.09333; fc of HBB (expression array) (Refseq NM_000518.4): 1.196; HBA1 expression fc (Refseq NM_000558.3): 0.08066; IL8 expression fc (Refseq NM_000584.2, cultured human skeletal muscle): 1.186; fc of IL15 (expression array) (Refseq NM_000585.2): −0.1029; TAP1 expression fc (Refseq NM_000593.5, cultured human skeletal muscle): 0.6996; fc of IL6 (expression array) (Refseq NM_000600.1): 1.198; IL10RB fc (Refseq NM_000628.3): −0.05056; fc of ALDH2 (expression array) (Refseq NM_000690.2): 0.2053; fc of ANXA1 (expression array) (Refseq NM_000700.1): 0.08537; fc of CYP2J2 (expression array) (Refseq NM_000775.2): 1.127; fc of GAS6 (expression array) (Refseq NM_000820.1): −0.3187; fc of MME (expression array) (Refseq NM_000902.3): −0.184; P4HB fc (Refseq NM_000918.3): −0.1927; PTGFR fc (Refseq NM_000959.3): 0.1496; TOP2A fc (Refseq NM_001067.2): −0.6065; TYMS fc (Refseq NM_001071.1): −0.09199; VCAM1 expression fc (Refseq NM_001078.2, cultured human skeletal muscle): 0.6349; ALOX15B fc (Refseq NM_001141.2): 0.4518; ANPEP expression fc (Refseq NM_001150.1, cultured human skeletal muscle): 0.3635; ART3 expression fc (Refseq NM_001179.3): 0.09073; CA12 expression fc (Refseq NM_001218.3, cultured human skeletal muscle): 0.954; fc of CASP4 (expression array) (Refseq NM_001225.3): 0.6908; CD68 fc (Refseq NM_001251.1): 1.175; CLIC1 fc (Refseq NM_001288.4): 0.3089; CXADR expression fc (Refseq NM_001338.3): −0.07005; DPYSL2 fc (Refseq NM_001386.4): 0.2285; EMP3 fc (Refseq NM_001425.1): −0.2096; FLT3LG fc (Refseq NM_001459.2): 0.3873; CXCL1 expression fc (Refseq NM_001511.1, cultured human skeletal muscle): 0.2028; fc of HAS1 (expression array) (Refseq NM_001523.1): 0.217; PRMT2 fc (Refseq NM_001535.2): 0.07412; NDST1 fc (Refseq NM_001543.3): −0.6912; IFIT2 expression fc (Refseq NM_001547.4, cultured human skeletal muscle): 2.07; IFIT1 expression fc (Refseq NM_001548.3, cultured human skeletal muscle): 0.7206; IFIT3 expression fc (Refseq NM_001549.2, cultured human skeletal muscle): 1.806; IFRD1 expression fc (Refseq NM_001550.2): −0.192; IGFBP4 expression fc (Refseq NM_001552.2, cultured human skeletal muscle): 0.4048; fc of CXCL10 (expression array) (Refseq NM_001565.2): 3.235; AARS fc (Refseq NM_001605.2): 0.2776; ACP2 fc (Refseq NM_001610.1): 0.2225; TRIM23 expression fc (Refseq NM_001656.3): 0.6303; ARSD fc (Refseq NM_001669.2): −0.2052; fc of AUH (expression array) (Refseq NM_001698.1): 0.1604; CFB expression fc (Refseq NM_001710.4, cultured human skeletal muscle): 0.6337; C1R expression fc (Refseq NM_001733.4, cultured human skeletal muscle): 0.4933; CAV1 fc (Refseq NM_001753.3): −0.1911; fc of RUNX1 (expression array) (Refseq NM_001754.3): −1.047; fc of CCND2 (expression array) (Refseq NM_001759.2): −0.5282; CD9 expression fc (Refseq NM_001769.2): −0.004788; CDH11 fc (Refseq NM_001797.2): 0.2419; HBEGF expression fc (Refseq NM_001945.1): −0.07673; ECGF1 expression fc (Refseq NM_001953.2, cultured human skeletal muscle): 0.6156; EGR1 expression fc (Refseq NM_001964.2): 0.02651; ETV6 fc (Refseq NM_001987.4): −0.05533; EYA3 expression fc (Refseq NM_001990.2): −0.01672; fc of ACSL1 (expression array) (Refseq NM_001995.2): 0.147; FES fc (Refseq NM_002005.2): −0.3314; FTH1 expression fc (Refseq NM_002032.2, cultured human skeletal muscle): −0.4183; GTF2F1 expression fc (Refseq NM_002096.1): 0.29; HLA-A fc (Refseq NM_002116.5): 0.5577; HMOX1 expression fc (Refseq NM_002133.1, cultured human skeletal muscle): 0.9838; HOXB2 expression fc (Refseq NM_002145.3): −0.04069; HSPA6 expression fc (Refseq NM_002155.3): 0.128; ID2 expression fc (Refseq NM_002166.4): 0.2756; fc of IFNB1 (expression array) (Refseq NM_002176.2): 1.044; INSM1 expression fc (Refseq NM_002196.2): 0.2306; IRF1 expression fc (Refseq NM_002198.1, cultured human skeletal muscle): 0.3563; ISG20 expression fc (Refseq NM_002201.4, cultured human skeletal muscle): 2.357; fc of ITGA3 (expression array) (Refseq NM_002204.1): 0.1268; fc of JUNB (expression array) (Refseq NM_002229.2): 0.5152; JUP expression fc (Refseq NM_002230.1): −0.1057; KPNA2 expression fc (Refseq NM_002266.2): −0.5075; fc of LAMC1 (expression array) (Refseq NM_002293.2): −1.061; fc of LSS (expression array) (Refseq NM_002340.3): −0.007301; LTBR fc (Refseq NM_002342.1): 0.4061; LUM fc (Refseq NM_002345.3): 0.3869; LY6E expression fc (Refseq NM_002346.1, cultured human skeletal muscle): 0.2484; fc of MDM2 (expression array) (Refseq NM_002392.2): 1.078; MX1 expression fc (Refseq NM_002462.2, cultured human skeletal muscle): 0.2624; MX2 expression fc (Refseq NM_002463.1, cultured human skeletal muscle): 0.9576; fc of MYF6 (expression array) (Refseq NM_002469.1): −0.0236; MYOD1 fc (Refseq NM_002478.4): −0.462; NFYA expression fc (Refseq NM_002505.3): 0.9153; OAS2 expression fc (Refseq NM_002535.2, cultured human skeletal muscle): 0.4553; ODC1 expression fc (Refseq NM_002539.1): −0.2008; PDE4B fc (Refseq NM_002600.3): 0.6757; PFKP fc (Refseq NM_002627.3): 0.7759; PIM1 expression fc (Refseq NM_002648.2): −0.6756; EXOSC10 expression fc (Refseq NM_002685.2): 0.2771; PNN expression fc (Refseq NM_002687.3): 0.04413; PRKD1 fc (Refseq NM_002742.2): −0.6085; PSMB9 expression fc (Refseq NM_002800.4, cultured human skeletal muscle): 0.9451; PTX3 expression fc (Refseq NM_002852.2, cultured human skeletal muscle): 0.9442; PYGB expression fc (Refseq NM_002862.3, cultured human skeletal muscle): −0.118; fc of RAB13 (expression array) (Refseq NM_002870.2): 0.3496; fc of RBMS1 (expression array) (Refseq NM_002897.3): 1.104; fc of RBMS2 (expression array) (Refseq NM_002898.2): 1.448; RXRA fc (Refseq NM_002957.3): −0.3202; CCL2 expression fc (Refseq NM_002982.3, cultured human skeletal muscle): 0.4355; CCL5 expression fc (Refseq NM_002985.2, cultured human skeletal muscle): 1.889; CXCL6 expression fc (Refseq NM_002993.2, cultured human skeletal muscle): 0.1728; CXCL5 expression fc (Refseq NM_002994.3, cultured human skeletal muscle): 0.824; SLC2A5 expression fc (Refseq NM_003039.1, cultured human skeletal muscle): 0.8141; SLC22A4 fc (Refseq NM_003059.2): 0.3817; SNAI2 expression fc (Refseq NM_003068.3, cultured human skeletal muscle): 0.2027; fc of SMARCD3 (expression array) (Refseq NM_003078.3): −0.3421; SNRNP70 expression fc (Refseq NM_003089.4): 0.01776; SOX4 expression fc (Refseq NM_003107.2): −0.2174; SPG7 fc (Refseq NM_003119.2): −0.2796; SRP19 expression fc (Refseq NM_003135.1): 0.227; fc of STRN (expression array) (Refseq NM_003162.2): 1.092; THBS1 fc (Refseq NM_003246.2): −0.5659; UBA7 expression fc (Refseq NM_003335.2, cultured human skeletal muscle): 0.5729; fc of UGCG (expression array) (Refseq NM_003358.1): 1.447; WEE1 fc (Refseq NM_003390.2): 0.3325; WNT5A fc (Refseq NM_003392.3): −0.3993
